Results taken from US20120316325, “DNA APTAMER […] BINDING TO pLDH (PLASMODIUM LACTATE DEHYDROGENASE)” (POSTECH ACADEMY-INDUSTRY FOUNDATION, published 2012).

Experiments:
[1] = target: T1, pvLDH (Plasmodium vivax lactate dehydrogenase) (Plasmodium vivax, UniProt Q4PRK9 Q4PRK9:1-316)
[2] = target: pfLDH (Plasmodium falciparum lactate dehydrogenase) (Plasmodium falciparum, UniProt Q27743 Q27743:1-316); test: fluorescence bead assay, same buffer; binding also seen by EMSA; details: chain copies: 4 inferred; label: FAM (fluorescence assay); Loop 1, G-C rich stem, Loop 2 (Mfold)
Procedure: A mixture of 16 μg of pvLDH and 10 μL of magnetic beads was incubated for one hour in 100 μL of binding buffer (20 mM Tris, 50 mM NaCl, 5 mM KCl, 5 mM MgCl2, pH 8.0), followed by washing twice with the binding buffer to remove unbound pvLDH. Then, the beads were incubated for one hour with various concentrations of FAM-labeled aptamers. The aptamers which were not reacted with pvLDH were removed by washing.
Only the FAM-labeled ssDNA aptamer which was bound to pvLDH immobilized to the magnetic beads was separated using a magnet and quantitatively analyzed by fluorescence assay (1420 Victor multilabel counter, PerkinElmer, USA). […] Kd values were also determined for pfLDH in the same manner.

[3] = target: T1, pvLDH (Plasmodium vivax lactate …); test: EMSA; details: tags: (His)6-tag, pET28a, E. coli BL21(DE3); chain copies: 4 inferred

Binder	Kd [1] [µM]	Kd [2] [µM]	binding result [3]
GAACTCATTGGCTGGAGGCGGCAGTACCGCTTGAGTTC (ssDNA) [Aptamer #2]	0.0317	0.0496	
GTTCGATTGGATTGTGCCGGAAGTGCTGGCTCGAAC (ssDNA) [Aptamer #1]	0.0168	0.0387	
GTTCGATTGGATTGTGCCGGAGACGCTGGCTCGAAC (ssDNA) [Aptamer #1 loop 2 mutant]			no binding
GTTCGACCAAATTGTGCCGGAAGTGCTGGCTCGAAC (ssDNA) [Aptamer #1 loop 1 mutant]			no binding
